For 3 substances, luciferase activity of TMLC co-culture with positive clones, with against without the TGFβ inhibitor (LAP) (fraction of the value without inhibitor) and rightward shift in GFP fluorescence of B9F reporter cells (percent of cells in the bright gate) results are on record in patent US20050084844A1.

Several values for one entry are separate records, joined by “and”; a condition that tells them apart may be missing. Identical values can stand only once.

Experiment [1] addresses active TGFβ generated by positive B9F clones (rat). Briefly: cell-based or functional assay.
For experiment [2], the target named is endogenous latent TGFβ secreted by B9F cells (latent TGFβ1, 2 and 3) (rat). The experiment in a line: cell-based or functional assay.

With “Recombinant simian TGFβ1 LAP (from UniProt P09533 30-278)”, the luciferase activity of TMLC co-culture with positive clones, with against without the TGFβ inhibitor (LAP) (fraction of the value without inhibitor) in experiment [1] is 0.33 and 0.5.

For the substance “integrin ανβ8 on B9F reporter cells (retrovirally expressed β8-integrin subunit paired with the endogenously expressed αν-integrin subunit) (receptor)”, in experiment [2], the rightward shift in GFP fluorescence of B9F reporter cells (percent of cells in the bright gate) is 25%.

Consider “integrin ανβ6 on B9F reporter cells (retrovirally expressed β6-integrin subunit paired with the endogenously expressed αν-integrin subunit) (receptor)”, for which the rightward shift in GFP fluorescence of B9F reporter cells (percent of cells in the bright gate) in experiment [2] is 48%.
